Data from publication PMC9719028 (Life Science Alliance, 2022).

What was measured:
[1] = biological target: T1, DIRC2-AA (Homo sapiens, UniProt Q96SL1, L14A/L15A); assay: inhibition of specific [3H]pyridoxine uptake in transfected COS-7 cells; assay type: cell-based; details: 10 nM [3H]pyridoxine, 1 mM test compound, pH 5.0, 37 °C, 1 min
T1 construct: gene SLC49A4; untagged DIRC2-AA in pCI-neo, N-terminal dileucine motif (E10RQPL14L15) replaced by dialanine, redirected to plasma membrane of transiently transfected COS-7 cells; FLAG-tagged form mostly present as cleaved product
T1 sequence (Q96SL1 1-478 L14A/L15A): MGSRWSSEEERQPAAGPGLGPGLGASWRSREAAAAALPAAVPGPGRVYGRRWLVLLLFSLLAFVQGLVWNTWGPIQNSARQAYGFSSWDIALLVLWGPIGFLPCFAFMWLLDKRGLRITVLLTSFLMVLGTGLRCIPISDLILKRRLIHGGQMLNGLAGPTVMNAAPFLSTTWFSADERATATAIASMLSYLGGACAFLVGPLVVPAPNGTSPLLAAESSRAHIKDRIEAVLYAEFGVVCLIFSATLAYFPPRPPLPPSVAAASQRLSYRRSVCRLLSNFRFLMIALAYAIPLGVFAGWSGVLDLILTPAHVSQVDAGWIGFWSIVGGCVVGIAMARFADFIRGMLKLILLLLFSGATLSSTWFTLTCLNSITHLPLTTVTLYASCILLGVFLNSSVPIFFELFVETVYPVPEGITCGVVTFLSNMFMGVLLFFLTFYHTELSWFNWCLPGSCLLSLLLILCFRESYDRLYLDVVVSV

[2] = substrate: Cc1ncc(CO)c(CO)c1O; assay: cells, lysate or membranes; details: pH 5.0, 37 °C, 1 min, labelled compound

Cc1ncc(CO)c(C)c1O [4-deoxypyridoxine]
% inhibition at 1 mM [1]: only 4-deoxypyridoxine other than pyridoxine significantly inhibited the DIRC2-AA–specific uptake

B1: DIRC2-AA (Homo sapiens; L14A/L15A) (protein)
chain: MGSRWSSEEERQPAAGPGLGPGLGASWRSREAAAAALPAAVPGPGRVYGRRWLVLLLFSLLAFVQGLVWNTWGPIQNSARQAYGFSSWDIALLVLWGPIGFLPCFAFMWLLDKRGLRITVLLTSFLMVLGTGLRCIPISDLILKRRLIHGGQMLNGLAGPTVMNAAPFLSTTWFSADERATATAIASMLSYLGGACAFLVGPLVVPAPNGTSPLLAAESSRAHIKDRIEAVLYAEFGVVCLIFSATLAYFPPRPPLPPSVAAASQRLSYRRSVCRLLSNFRFLMIALAYAIPLGVFAGWSGVLDLILTPAHVSQVDAGWIGFWSIVGGCVVGIAMARFADFIRGMLKLILLLLFSGATLSSTWFTLTCLNSITHLPLTTVTLYASCILLGVFLNSSVPIFFELFVETVYPVPEGITCGVVTFLSNMFMGVLLFFLTFYHTELSWFNWCLPGSCLLSLLLILCFRESYDRLYLDVVVSV
Km ([2]; Hanks' solution with MES (NaCl present), H+-coupled uptake): 522 ± 63 µM

B2: EGFP-DIRC2-AA (Homo sapiens; L14A/L15A) (protein)
chain: MGSRWSSEEERQPAAGPGLGPGLGASWRSREAAAAALPAAVPGPGRVYGRRWLVLLLFSLLAFVQGLVWNTWGPIQNSARQAYGFSSWDIALLVLWGPIGFLPCFAFMWLLDKRGLRITVLLTSFLMVLGTGLRCIPISDLILKRRLIHGGQMLNGLAGPTVMNAAPFLSTTWFSADERATATAIASMLSYLGGACAFLVGPLVVPAPNGTSPLLAAESSRAHIKDRIEAVLYAEFGVVCLIFSATLAYFPPRPPLPPSVAAASQRLSYRRSVCRLLSNFRFLMIALAYAIPLGVFAGWSGVLDLILTPAHVSQVDAGWIGFWSIVGGCVVGIAMARFADFIRGMLKLILLLLFSGATLSSTWFTLTCLNSITHLPLTTVTLYASCILLGVFLNSSVPIFFELFVETVYPVPEGITCGVVTFLSNMFMGVLLFFLTFYHTELSWFNWCLPGSCLLSLLLILCFRESYDRLYLDVVVSV
Km ([2]; Hanks' solution with MES (NaCl present), H+-coupled uptake, caption names it FLAG-DIRC2-AA once, text says EGFP-DIRC2-AA): 476 ± 19 µM

B3: EGFP-THTR2 (Homo sapiens) (protein)
chain: MDCYRTSLSSSWIYPTVILCLFGFFSMMRPSEPFLIPYLSGPDKNLTSAEITNEIFPVWTYSYLVLLLPVFVLTDYVRYKPVIILQGISFIITWLLLLFGQGVKTMQVVEFFYGMVTAAEVAYYAYIYSVVSPEHYQRVSGYCRSVTLAAYTAGSVLAQLLVSLANMSYFYLNVISLASVSVAFLFSLFLPMPKKSMFFHAKPSREIKKSSSVNPVLEETHEGEAPGCEEQKPTSEILSTSGKLNKGQLNSLKPSNVTVDVFVQWFQDLKECYSSKRLFYWSLWWAFATAGFNQVLNYVQILWDYKAPSQDSSIYNGAVEAIATFGGAVAAFAVGYVKVNWDLLGELALVVFSVVNAGSLFLMHYTANIWACYAGYLIFKSSYMLLITIAVFQIAVNLNVERYALVFGINTFIALVIQTIMTVIVVDQRGLNLPVSIQFLVYGSYFAVIAGIFLMRSMYITYSTKSQKDVQSPAPSENPDVSHPEEESNIIMSTKL
Km ([2]; Hanks' solution with MES): 20 ± 1 µM
